T1: Y1 receptor-Gc (rat Y1 receptor fused at the C terminus to sfGFP fragment 155-238) (rat, UniProt P21555 1-382)
T1 construct: neuropeptide Y receptor type 1, rat; cDNA transferred to the pCMV FLAG vector for transfection; also called Y1-Gc; receptor of the Y1 A1, Y1 A2 and Y1 A2Δ cell lines; source: HEK293T, stably transfected into β-arrestin-Gn clonal lines; live or fixed cells, or membranes
T1 sequence (looked up): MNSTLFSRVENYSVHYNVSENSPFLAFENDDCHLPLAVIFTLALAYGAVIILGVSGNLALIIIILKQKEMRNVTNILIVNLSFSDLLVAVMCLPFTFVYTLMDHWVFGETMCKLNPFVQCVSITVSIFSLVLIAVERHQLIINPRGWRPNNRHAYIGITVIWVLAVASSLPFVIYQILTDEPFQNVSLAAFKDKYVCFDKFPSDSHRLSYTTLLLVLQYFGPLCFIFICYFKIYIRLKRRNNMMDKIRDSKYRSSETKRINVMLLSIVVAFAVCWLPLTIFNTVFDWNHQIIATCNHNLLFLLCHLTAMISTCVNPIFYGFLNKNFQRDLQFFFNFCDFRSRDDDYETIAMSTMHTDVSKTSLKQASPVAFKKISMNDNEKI

T2: Y1 6A receptor-Gc (rat, UniProt P21555 1-382, S352A | T353A | T356A | S359A | T361A | S362A)
T2 construct: neuropeptide Y receptor type 1, rat, with six C tail serine/threonine residues changed to alanine; also called Y16A-Gc; receptor of the Y16A A1 and Y16A A2 cell lines; source: HEK293 cells stably co-expressing β-arrestin-Gn; live cells or membranes
T2 sequence (looked up): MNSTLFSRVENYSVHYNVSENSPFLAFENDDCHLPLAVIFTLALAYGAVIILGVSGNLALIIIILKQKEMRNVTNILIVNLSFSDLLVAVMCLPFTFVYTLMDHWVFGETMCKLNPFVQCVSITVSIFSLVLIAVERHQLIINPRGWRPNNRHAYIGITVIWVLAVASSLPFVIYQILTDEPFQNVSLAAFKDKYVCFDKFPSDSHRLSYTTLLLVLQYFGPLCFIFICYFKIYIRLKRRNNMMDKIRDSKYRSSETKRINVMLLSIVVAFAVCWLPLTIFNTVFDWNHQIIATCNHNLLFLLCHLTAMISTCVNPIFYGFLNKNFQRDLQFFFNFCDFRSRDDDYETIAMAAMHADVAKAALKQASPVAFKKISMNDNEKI

T3: Y1 receptor-sfGFP (rat NPY Y1 receptor, N-terminal FLAG, C-terminal superfolder GFP) (rat, UniProt P21555 1-382)
T3 construct: neuropeptide Y receptor type 1, rat; sfGFP here is enhanced GFP with S30R, Y39N, M153T and V163A (wild type GFP numbering), lacking the start Met; linker LRPLE between receptor C terminus and sfGFP; also called Y1sfGFP; Y1-sfGFP; source: membranes or live cells; not shown: sfGFP via linker LRPLE, C-terminal, kept
T3 sequence (looked up): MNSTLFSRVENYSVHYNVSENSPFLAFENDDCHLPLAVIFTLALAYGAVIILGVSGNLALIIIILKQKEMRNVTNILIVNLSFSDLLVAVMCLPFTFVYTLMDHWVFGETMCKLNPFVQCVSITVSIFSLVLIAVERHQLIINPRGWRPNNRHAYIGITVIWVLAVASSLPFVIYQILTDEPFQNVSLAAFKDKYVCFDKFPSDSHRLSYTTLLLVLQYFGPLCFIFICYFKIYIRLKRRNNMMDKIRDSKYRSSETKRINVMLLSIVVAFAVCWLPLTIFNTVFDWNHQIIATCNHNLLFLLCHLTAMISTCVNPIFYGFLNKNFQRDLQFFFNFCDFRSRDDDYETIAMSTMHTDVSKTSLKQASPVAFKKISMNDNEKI

T4: Y1 6A receptor-sfGFP (rat, UniProt P21555 1-382, S352A | T353A | T356A | S359A | T361A | S362A)
T4 construct: neuropeptide Y receptor type 1, rat, with six C tail serine/threonine residues changed to alanine; also called Y16AsfGFP; source: membranes or live cells; not shown: sfGFP via linker LRPLE, C-terminal, kept
T4 sequence (looked up): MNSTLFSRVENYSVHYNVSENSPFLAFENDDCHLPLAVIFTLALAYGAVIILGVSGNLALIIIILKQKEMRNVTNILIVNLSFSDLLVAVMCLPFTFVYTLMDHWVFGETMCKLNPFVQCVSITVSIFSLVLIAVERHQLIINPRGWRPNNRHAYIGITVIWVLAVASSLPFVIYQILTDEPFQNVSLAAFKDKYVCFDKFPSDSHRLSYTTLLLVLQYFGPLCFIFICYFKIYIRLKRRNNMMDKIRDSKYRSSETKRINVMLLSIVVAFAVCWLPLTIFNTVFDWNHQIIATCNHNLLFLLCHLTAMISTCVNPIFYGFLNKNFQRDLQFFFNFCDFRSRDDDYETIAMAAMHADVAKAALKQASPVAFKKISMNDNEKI


Key:
[1] = molecular target: T1, Y1 receptor-Gc (rat Y1 receptor fused …); assay: split reporter (BiFC, NanoBiT); sfGFP BiFC in stable HEK293 cells in 96 well plates, NPY 0.1 nM-3 μM for 60 min at 37 °C, fixed, confocal platereader images quantified by granularity analysis (average granule intensity/cell); conditions: partners not purified
[2] = molecular target: T1, Y1 receptor-Gc (rat Y1 receptor fused …); assay: radioligand binding; as a1 but on membranes of HEK293T BiFC cell lines co-expressing β-arrestin1-Gn (Y1 A1, Y16A A1); 16 pM [125I]PYY; conditions: one partner purified
[3] = molecular target: T2, Y1 6A receptor-Gc; assay: as above; conditions: one partner purified
[4] = molecular target: T1, Y1 receptor-Gc (rat Y1 receptor fused …); assay: radioligand binding; as a1 but on membranes of HEK293T BiFC cell lines co-expressing β-arrestin2-Gn (Y1 A2, Y16A A2); 16 pM [125I]PYY; conditions: one partner purified
[5] = molecular target: T2, Y1 6A receptor-Gc; assay: as above; conditions: one partner purified
[6] = molecular target: T1, Y1 receptor-Gc (rat Y1 receptor fused …); assay: radioligand binding; as a1 but on membranes of the HEK293T BiFC cell line co-expressing β-arrestin2 ΔLIEFD-Gn (Y1 A2Δ); 16 pM [125I]PYY; conditions: one partner purified
[7] = molecular target: T3, Y1 receptor-sfGFP (rat NPY Y1 receptor, …); assay: radioligand binding; competition with [125I]PYY (16 pM for Y1, 10 pM for Y2 receptors) on membranes of tetracycline-induced 293TR Y receptor-sfGFP cell lines; 90 min at 21 °C; 25 mM HEPES, 2.5 mM CaCl2, 1.0 mM MgCl2, 0.1% BSA, 0.1 mg/ml bacitracin, pH 7.4; IC50 converted to pKi by the Cheng-Prusoff equation; conditions: one partner purified
[8] = molecular target: T4, Y1 6A receptor-sfGFP; assay: as above; conditions: one partner purified

Row | pEC50 of NPY in stimulating the BiFC response (β-arrestin recruitment) [1] | pKi [2] | pKi [3] | pKi [4] | pKi [5] | pKi [6] | pKi [7] | pKi [8] | Binder
1 | 8.3 | – | – | – | – | – | – | – | β-arrestin1-Gn (human β-arrestin1 fused at the C terminus to sfGFP fragment 2-172) (natural protein, UniProt P49407 1-418, looked up, β-arrestin1, human, full length with the stop codon removed; The keyword list gives Gn as sfGFP 2-173, the methods as 2-172; also called A1; not shown: Gn (sfGFP fragment 2-172) via linker QRPLE, C-terminal, kept) MGDKGTRVFKKASPNGKLTVYLGKRDFVDHIDLVDPVDGVVLVDPEYLKERRVYVTLTCAFRYGREDLDVLGLTFRKDLFVANVQSFPPAPEDKKPLTRLQERLIKKLGEHAYPFTFEIPPNLPCSVTLQPGPEDTGKACGVDYEVKAFCAENLEEKIHKRNSVRLVIRKVQYAPERPGPQPTAETTRQFLMSDKPLHLEASLDKEIYYHGEPISVNVHVTNNTNKTVKKIKISVRQYADICLFNTAQYKCPVAMEEADDTVAPSSTFCKVYTLTPFLANNREKRGLALDGKLKHEDTNLASSTLLREGANREILGIIVSYKVKVKLVVSRGGLLGDLASSDVAVELPFTLMHPKPKEEPPHREVPENETPVDTNLIELDTNDDDIVFEDFARQRLKGMKDDKEEEEDGTGSPQLNNR
2 | – | 9.45 | 9.3 | 9.54 | 9.48 | 9.44 | 9.5 | 9.22 | peptide YY (PYY), unlabelled (neither species nor supplier is stated; surmised) peptide: not shown

Source: paper PMC3793875, “Fluorescence correlation spectroscopy, combined with bimolecular fluorescence complementation, reveals the effects of β-arrestin complexes and endocytic targeting on the membrane mobility of neuropeptide Y receptors” (Biochimica et Biophysica Acta, 2012)
